The values that follow come from publication PMC3681970, “Biochemical Characterization of UDP-N-acetylmuramoyl-L-alanyl-D-glutamate: meso-2,6-diaminopimelate ligase (MurE) from Verrucomicrobium spinosum DSM 4136^T” (PLoS ONE, 2013).

What all share (test): radiometric HPLC ligase assay, Michaelis-Menten fit
What all share (type): biochemical, Verrucomicrobium spinosum

Substrate in series [1]: CC(=O)N[C@H]1[C@@H](OP(=O)(O)OP(=O)(O)OC[C@H]2O[C@@H](n3ccc(=O)[nH]c3=O)[C@H](O)[C@@H]2O)O[C@H](CO)[C@@H](O)[C@@H]1O[C@H](C)C(=O)N[C@@H](C)C(=O)N[C@H](CCC(=O)O)C(=O)O
The note with it: 100 mM Tris-HCl pH 9.6, 30 mM MgCl2, 37°C, other substrates fixed (standard 5 mM ATP, 150 µM meso-A2pm), labelled compound (14C in D-Glu).

Substrate in series [2]: N[C@H](CCC[C@H](N)C(=O)O)C(=O)O
The note with it: 100 mM Tris-HCl pH 9.6, 30 mM MgCl2, 37°C, other substrates fixed (standard 5 mM ATP, 150 µM UDP-MurNAc-L-Ala-D-[14C]Glu).

Substrate in series [3]: Nc1ncnc2c1ncn2[C@@H]1O[C@H](COP(=O)(O)OP(=O)(O)OP(=O)(O)O)[C@@H](O)[C@H]1O
The note with it: 100 mM Tris-HCl pH 9.6, 30 mM MgCl2, 37°C, other substrates fixed (standard 150 µM UDP-MurNAc-L-Ala-D-[14C]Glu, 150 µM meso-A2pm).

B1: MurEVs (Verrucomicrobium spinosum) (protein)
chain: MTILRDLIEGLDKPVISGGLDVEVAGLAYDSRLVKPGFVFFALRGVKSDGHDFIPKALAEGAVAIVAETAPPEDCSVTWLHVKNARVALAEMAAAYKGHPARSMAVGGVTGTNGKTTTAFLLHHLLNHAHRRCGLLGTVVYDVGGDLKPATHTTPESLELQGLLSEMRDRGCVAVAMEVSSHAIDQHRTHGVPFAAAVFTNLSQDHLDYHGTMEEYFKAKSKLFSSTAASRSGKLVINVDDIWGRRLVDAHKEHPGLVTYGLGVAADYRAVNPRYDLTGTSFELEHKGRSLLVRIPQIGQFNVYNSLAALAAAHGMGCNLRDTVKAMQSSPQIPGRMERVTPDNHSFHVFVDYAHTPDGLVNALSTARALRPERIITVFGCGGDRDRLKRPLMARAVEEHSDISILTSDNPRTEDPQAIMDDARKGFTRSAHALIADRKEAIHTAIKGAREGDIVVIAGKGHEPYQDVQGVKHPFDDRRVARQLVDIEIRIKGEKRLEARQRRDDRQ
Turning to B1, the Km in series [1] stood at 24 ± 6 µM; in series [2], 17 ± 3 µM; in series [3], 290 ± 70 µM.

In general, Km refers to the concentration of substrate that gives half-maximal velocity.
